The series is described as follows: soluble fraction after stress (log2 fold change); higher = more stays soluble; pooled small domains, quantitative proteomics. The settings on record: stress: pH 4. In a few lines: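 Small protein domains from pooled custom libraries were exposed to pH 4, then quantified with high-throughput quantitative proteomics. The fold change in how much of each domain remains soluble is read as aggregation propensity. It is given as log2, with higher values meaning more stayed soluble.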
Take “HMEDKIIVTVPGEYHLERIDRFLAANLEEDLSRSLIQRYIRENLITVNGEAVRANYKVKTDDEILITFPQ”: the “soluble fraction (log2)” value is -1.04.
Next, “HMEDLAERLDNLSTMYAKMDPVRAAQVLLESKNKSENIEVLKRLKPKSLGLILENMPPREAYDYVSELQ”: 0.0298; “HMEDLGYVKVASQTAAIRKSAAVQAGQIGTVHEGETYRYLGEEEGWYLVEYNGQKAYISWDDGEL”: -0.553; “HMEDMMKALLDVVRAQHTATEGSEERPFDINDIIDMALNITGRPEEPEEQQELSDTIQKLAESLAPDIFP”: -0.596.
To “HMEDNKLKNEIKNELVSHLEKPYSVEDLADALKYHGSAAFKLIVQELAILERERAVVVTHDGNFKINSS” belongs -0.0181.
With “HMEDPAVYYKILQIPPDASLSEIHRAFEKITSAWDPERYPHISSWKETSAKKLQEIRNAYEKLLILRETG”, the “soluble fraction (log2)” value was -0.00219.
In the case of “HMEDPFLWVEKLGSSDWIEREESAEKLLEAGEASVEALRTALTHPDLEVRERVRELLSVISPL”, the “soluble fraction (log2)” value is -1.82.
Next, “HMEDPRVTEIKNLQQDLAKKFKPTQGPASASDAVERVTAITTVMTKVAALPEDLRSEAMQPGKKM”: -0.0985.
To “HMEDQFWQNRAEMALASARRAGRIVTYAEMADAADIPAPQRIHKLTLWLEATMRQDHASGQPLRAALV” belongs -0.0778; to “HMEDQITNQQFTMTKQSILDLLVKKSYPPYELANELHLKKEEVLPIIRFLIAENEIHFKDGMLHLPH”, -0.0688.
To “HMEDQLDSLKDIIYDYLENNELYYNDLQEFKKIIIENMEFIHPNLNHKLIDNNFFKLINFKLEYNF” belongs -0.828.
For “HMEDSSSILNRMRKLIALLNRASEAYYKENKEIISNFEYDRLYDELLGLESRSNTVLSGSPTYKV”, the “soluble fraction (log2)” value was -1.21.
Next, “HMEDTFEYPVSVNGKLRFKIELPVSMEKDEIRNIVLNDERAKKWLATGTLTNLIVVPNRIINIVIK”: 0.0025; “HMEDTSTLSIKHKIKELINQESPQAILSDDKLVELLAAQGIKIARRTIAKYRETMNIPTSAERKRQKRPP”: 0.275; “HMEDVTLSLVVGEDLDGERLDVFLTWKLDRTRSQVQALIRDGKVRLEQGQRARPSMVVRSGMGISVSLEPR”: -1.11.
Next, “HMEDYYKILGVSKDASIDDIKKSYRKLSLQNHPDRNKSPQASENFAKINSAYEVLSDQRKKRQYDMQQSM”: not below 0.43; “HMEEAQWEFKWENTDSAEIHGPHSSSEMLKWQENSFFAKGVYVRKVGGDTTDFTDGKRIDFDLY”: -1.69.
To “HMEEDPILVAQRFLNIFRQLHIFDQQRREEFNSMILALPPEIRGTFGVLPGGSVLQEYVDELEISKGMA” belongs -1.33; to “HMEEDPVISQAQRQALFKLAHDHFGQEEGNKVILRLIGEHGLRSTTNMTASVYKTVTDALIQVIESMVEG”, -0.444.
Consider “HMEEEDELALFLREERKNYDLTLTDVHEKTGIPQKVLKEFQWGDAQLTDRQRYTLTQYVEEAREYFQENA”, for which the “soluble fraction (log2)” value is -0.998.
Regarding “HMEEEVKVPKIKGLTEAEAKAKLKSEGLESGTARSAYSDTVEEGHIISQSIQEGTKVPKGTAVSYEVSKGK”, the “soluble fraction (log2)” value turned out to be 0.22.
For the sequence “HMEEGKVKRMAMDMVDAFYDKVSAMVDDNNDLGRSVVDAWDDEEENPPEYMLDDETRAILVNAGKIEPE”, the “soluble fraction (log2)” value is 0.0884.
As to “HMEEHSLRKQEMLRIIEALEQLTPKEKTVVVLYYFKGVLFKDIAMLLDVTEGRISQLHTAAMGRLKKLMD”, the “soluble fraction (log2)” value was -0.632.
As for “HMEEIDLTPAEEILNKLPDNSRGYLIPTLNKIQNAYRFLPDPAMELLMEFFNVSRAEIFGVISFYPQLMI”, the “soluble fraction (log2)” value was -0.533.
Take “HMEEIPYGVISAKAGAAAYDYIKKSIELGIEKKIDGVATAPIQKEAIHMAGISYIGHTEMYQGIT”: the “soluble fraction (log2)” value amounted to 0.0683.
Take “HMEEKEIGQTLSVKIRENVLSKLDMTRDLEDEEVKHIIEHEIWLAAKKHYISLEERNSIKRGIFNSL”: the “soluble fraction (log2)” value is -0.773.
In the case of “HMEELELTIDGEMVGRIDKQLGHHFDQFSRSQIQHWIEDGHVLVNGKQVKPKYKLLVGDHVQIIPEEPQK”, the “soluble fraction (log2)” value amounted to 0.223.
Next, “HMEELIIQEELANKRLDIAISLLFPELTRAHAQKLIKEGSVLVDGKPRKASYPLTAGKRLSVTLPEPE”: -0.0497; “HMEELPVLHLKHVVVEGESLWKLAEQYLNDGTRWQEIYMLNRENISNPDLIREGQELNIQFLQGE”: -1.05; “HMEENIKKDIEVPNIEGLTIDEAKKRLKEVNLNISIEDMEEKEGTEIITQQLPKAGIKVKEGVAIIAY”: -0.211.
Next, “HMEEPEFEPYVVRLTAIALNVRTGPGTQYPVAMVIRGGGAFTIVAEENGFGLLKSGAGWIMLQHTERV”: -0.427; “HMEEQELQLIQFPIASGSAWAGKAVRELILPPETLLVMLIRGTETMIPKGDTMVQEGDTAVLSASAYRDD”: -1.61.
Next, “HMEEQKYEYHLGDVVYLGVDKYEILGITNNIVTLYDPEFPLLNKQLDFDEFEKRVKDNYANEHLKVT”: -0.545; “HMEERDMKGSISDLVERYADQLTDEQLEEIVLGIKNGLLEEDVKSYFFLPAEDMRRIRTALEQVR”: -1.6.
Consider “HMEESEMIAFATVAHRIVGKPVEAVMRSYRNRDNIPADIAAIVSSKFTFSVTMAEASYRNPKKSYQVNSII”, for which the “soluble fraction (log2)” value turned out to be 0.22.
Next, “HMEETLLLRESVRSALAMLAPTLRITLEMYVYRQLSPTEIALRSGVSISMVRRRLGYGLYKLRTQLIDA”: -0.394.
As for “HMEFEIGQEDSKKSVKQFLYNTLRLSHGQVTALKRQERGILLNGERVFVTALLQEGDRLSLLLE”, the “soluble fraction (log2)” value was -1.24.
To “HMEFFIIDHNGQQAGPFSFDQLVQKGISPETLVWKQGMADWNPAWKVEELKAVLEAVEANQSNQKAQ” belongs -1.3.
Turning to “HMEFGEVLAQLRQKRHISQAELGRAIFVSGGTISNYEKGVHFPDVEKLLLLADYFNVTTDYLLGRT”, the “soluble fraction (log2)” value is -0.169.
To “HMEFNQAVQDVNELSMQYAKSDVLWPEFEPKVLAFAKNELSQMPPNQWKFALQTFYNGLKQAA” belongs -0.0767; to “HMEFPLSPHQYSVLRLMAQGLSNKQIAERLFLSENTVKGYVQEVLRRLGARNRLEAVMIANRRGWL”, -0.606; to “HMEFPYISGVDVGTISNKEFARFETTKASDIVIALDKSGIPFSARFGDSEIVLTYDGSYKEEVEEIIAKV”, -0.115.
Regarding “HMEFSYMDQGLERYRAFLETHGHGNVPESYHELKLVNFVAHIRKLYRMNLLSEERRRALDEAGFVF”, the “soluble fraction (log2)” value is -1.24.
Next, “HMEFVEERRNRMLDYIGENKRADVPELARHFDVTEVTIRRDLLILEQDGKLIRTHGGAMINR”: -0.278; “HMEGDKEIPNVIGKSINDAKKILEQAGLKLGEVKKVNDSSVAKNVVLSTNPNAGTKVSAGDAVSITVAEG”: 0.278.
Next, “HMEGGLIMDRIEKGLQSGVMPDLRGLNLKDALYLLESYVQVQVIGSGGVIKQSIKTGDKFIMGSVIKLEL”: 0.041; “HMEGLATRLRFLRQARGLSYHALARLSGVTHTALHQIEAGKNIPGLDTAEKIAMALDVDPRWFAYGRGDPS”: -0.578.
For “HMEGPALKVWKARYLRAAILEQLLSDRWDDRGGQPIRVVVNEPTNSLLIRIPRHLWPEAEKLLQELDQR”, the “soluble fraction (log2)” value was -0.312.
To “HMEGTEILVNIRKGMTKEEIASLLVSKGLVEDKNTFLVQTALYTSDRYPIQPGSYTLNTAQTPEEMLAVMT” belongs -0.073.
To “HMEGVNLTVQEAKQMAAIIAPLLKQGQSPYQIVTNHPELGISEKTLYNYIENDVFHEIAGITVMDL” belongs -0.881; to “HMEHIVNELDRKVIDYLQSHYDAKLNDIAQGIGVSKATATKSIRKLVQTGIVHVVGSSGTGTSYNLTE”, 0.0867.
With “HMEHVVFEVTESGELENNTAVKHVLNSFNNKSLNLAIDDFGTGYSNLRYIRDMMFGIIKIDRLFIKDINES”, the “soluble fraction (log2)” value is 0.158.
For the sequence “HMEIDFDKINSIFNDANKLYEEGDYFEANNLYKNIVSSNIISKDLYYNLGLSYAKIGSNGYAILWYERALN”, the “soluble fraction (log2)” value was -0.215.
Next, “HMEIEEIDYGTFLQMVEDGVVEKIELTDTQIFLTSTVDNDDKVYTTGVMPDQDLTNRLIEAGVVNFGKVV”: -0.956; “HMEIFSIEPDSYLGSGEEIASYYREGVTVIVNMAKLSDAESLRMVDFMSGLKLALLGNIKRITKHVYLLTP”: -0.966; “HMEIITIVSDINGKRIDAWLSEKLENYSRSFIQKLIQNENVKVNNNIVKANYKLKNGDAVAVSIPEPV”: -0.261.
On to “HMEILNYVVSDGQSGIRIDRYLSDSNEDLSRSYIQKLLKEQKVTVQGTFVKANYKVQAGDVITVEVPDMA”, for which the “soluble fraction (log2)” value was determined as 0.238.
Next, “HMEILPAYRDIKKEALLGNINAEFKYVNLLLEHNYIEQAFNIIEDMKTRVDDNPEFEELKSRVADAYLMY”: -1.48; “HMEILTLEELKRLMAKAKLKQNQISGHAGVSKQQISMILAGKRNITKDVSDNLKANLAEYFP”: 0.107; “HMEILVSTRRHEIASLLSRKKRVSFFELFPEKTKEYVVATFLAILEMAKAREVNITQEDTFDEIIVEEA”: -1.09.
To “HMEIPTPAELREKRIRMGLKQADVARMAGISQSMVARIESGSVDPRVSTLAKIVEVLQAAER” belongs 0.185.
On to “HMEISLEAKMAEVREQVRGLAGINFRTLLEMQASRSNIIVTFLAILELMKIGAIQIRQEEIFGEIIIDSRD”, for which the “soluble fraction (log2)” value was -0.28.
Next, “HMEISPGDVFKQLPGIGDDLSRRVVESLGIQSLEELESAAHDGRLEQVEGFGERRVQMVRAVLTGMLS”: -1.04; “HMEITTEDIAAQVASWIVRLSEDLTSTDRAALQIEFEQWQQTDSRRAEIAHKMLSLIGQAEQLRKT”: -0.614; “HMEKAISSLTLEEAKKRLEMVRSEKDASLQIYKETGSETARVTAENYGKEENSLLLHISEMSNIV”: -0.209.
Turning to “HMEKFTGELSQEEKNVLDALSHEEMHVDIIIKLTKLETSAVSSTLSLLEIKGLIKNIGGQNYIK”, the “soluble fraction (log2)” value was -0.139.
Turning to “HMEKIIFEISEEGKRLDLYIAERTELTRTRIQQLIKDGNINVNNKKSKPSYKVEKNDFIEMIIPDE”, the “soluble fraction (log2)” value was -0.49.
Next, “HMEKINLIIEEDNNLRLDKVIAMQLQELSRTQIQDMINQGLVLVNQKKEKASYKTKLNDEIEITILD”: -0.382.

Values taken from the domain aggregation screens of Martell et al. (2025).
